From article PMC3476724 (Biochemistry, 2012)

Tests used:
[1] = target: CXCR4 mutant Y45A (human) (UniProt P61073); assay: 12G5 antibody competition binding on cells
[2] = target: CXCR4 mutant DNX4 (human) (UniProt P61073); assay: 12G5 antibody competition binding on cells
[3] = target: CXCR4 mutant W252A (human) (UniProt P61073); assay: 12G5 antibody competition binding on cells
[4] = target: CXCR4 mutant F292A (human) (UniProt P61073); assay: 12G5 antibody competition binding on cells
[5] = target: CXCR4 mutant F87A (human) (UniProt P61073); assay: 12G5 antibody competition binding on cells
[6] = target: CXCR4 mutant E288D (human) (UniProt P61073); assay: 12G5 antibody competition binding on cells
[7] = target: CXCR4 mutant D171A (human) (UniProt P61073); assay: 12G5 antibody competition binding on cells
[8] = target: chemokine receptor CXCR4, wild type (human) (UniProt P61073); assay: 12G5 antibody competition binding on cells
[9] = target: CXCR4 mutant Y255A (human) (UniProt P61073); assay: 12G5 antibody competition binding on cells
[10] = target: CXCR4 mutant Y121A (human) (UniProt P61073); assay: 12G5 antibody competition binding on cells
CXCR4 = CXCR4 (Homo sapiens, UniProt P61073); assay: Intracellular calcium mobilization in Sup T1 cells; type: cell-based; settings: 50 nM, Sup T1 cells expressing CXCR4, fura-2; representative of at least three independent experiments

| Substance | decrease of binding against wild-type CXCR4 [1] [%] | increase of % bound 12G5 against wild-type CXCR4 [2] [%] | decrease of binding against wild-type CXCR4 [3] [%] | decrease of binding against wild-type CXCR4 [4] [%] | decrease of binding against wild-type CXCR4 [5] [%] | decrease of binding against wild-type CXCR4 [6] [%] | decrease of binding against wild-type CXCR4 [7] [%] | IC50 [8] [nM] | decrease of binding against wild-type CXCR4 [9] [%] | decrease of binding against wild-type CXCR4 [10] [%] | Mobilization of calcium (Ca2+) (CXCR4) |
| --- | --- | --- | --- | --- | --- | --- | --- | --- | --- | --- | --- |
| DV1 dimer (peptide) | 20 | 15 | 20 | 20 | 40 | 40 | 60 | 3 | 20 | 20 | – |
| stromal cell-derived factor-1α [SDF-1α] | – | – | – | – | – | – | – | – | – | – | rapid Ca^2+ mobilization |
